Test [1] concerns the target T1, Human IL-2Rα/β/γ complex (high affinity IL-2 receptor) (human, UniProt P01589 22-272; P14784 27-551; P31785 23-369).
T1 construct: whole, on cells
T1 sequence (looked up) 1: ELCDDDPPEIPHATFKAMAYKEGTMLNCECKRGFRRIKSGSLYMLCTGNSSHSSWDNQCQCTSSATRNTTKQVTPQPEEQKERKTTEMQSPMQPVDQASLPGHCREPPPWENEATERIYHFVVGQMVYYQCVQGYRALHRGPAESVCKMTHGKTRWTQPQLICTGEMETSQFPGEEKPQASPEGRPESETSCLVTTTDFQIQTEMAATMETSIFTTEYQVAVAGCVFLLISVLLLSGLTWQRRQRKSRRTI
T1 sequence (looked up) 2: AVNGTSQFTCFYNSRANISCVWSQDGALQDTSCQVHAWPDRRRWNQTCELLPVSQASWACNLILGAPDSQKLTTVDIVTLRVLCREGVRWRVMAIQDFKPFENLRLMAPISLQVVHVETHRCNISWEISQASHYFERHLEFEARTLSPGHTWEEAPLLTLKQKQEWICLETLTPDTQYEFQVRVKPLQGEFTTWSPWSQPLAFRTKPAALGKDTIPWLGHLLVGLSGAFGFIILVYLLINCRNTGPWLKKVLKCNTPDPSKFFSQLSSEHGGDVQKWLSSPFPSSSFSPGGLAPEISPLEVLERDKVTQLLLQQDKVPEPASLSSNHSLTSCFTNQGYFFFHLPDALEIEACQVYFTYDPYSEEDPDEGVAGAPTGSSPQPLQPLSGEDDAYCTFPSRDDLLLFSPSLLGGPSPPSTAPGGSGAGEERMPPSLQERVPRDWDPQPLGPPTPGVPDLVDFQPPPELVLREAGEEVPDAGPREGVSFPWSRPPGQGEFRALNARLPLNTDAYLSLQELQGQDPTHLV
T1 sequence (looked up) 3: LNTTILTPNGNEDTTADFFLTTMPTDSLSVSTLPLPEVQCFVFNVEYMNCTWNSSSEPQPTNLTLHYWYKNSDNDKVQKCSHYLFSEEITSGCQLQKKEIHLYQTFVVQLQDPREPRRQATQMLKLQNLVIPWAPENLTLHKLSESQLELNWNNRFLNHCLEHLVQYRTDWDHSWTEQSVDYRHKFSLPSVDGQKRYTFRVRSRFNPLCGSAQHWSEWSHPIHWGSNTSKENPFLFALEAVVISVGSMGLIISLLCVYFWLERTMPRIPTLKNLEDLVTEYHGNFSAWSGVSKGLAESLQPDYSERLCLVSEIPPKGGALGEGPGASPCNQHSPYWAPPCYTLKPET
Put plainly: FACS, MJ20 cells. Summed up: (§1)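 IL-2/Fc fusion proteins were incubated with cells for 30 min at 4° C. to prevent internalization, then bound protein was detected with PE-anti-human Fc for 30 min at 4° C. Median fluorescence intensity was read by FACS. HH cells express IL-2Rβ and γ; NK92 and MJ20 also express IL-2Rα.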

Test [2] concerns the target T2, W3XX115-hPro1.ECD.His, IL2Rα ECD (Homo sapiens (Human), UniProt P01589 22-213).
T2 construct: Entry includes the C-terminal 6xHis tag; also called CD25
T2 sequence: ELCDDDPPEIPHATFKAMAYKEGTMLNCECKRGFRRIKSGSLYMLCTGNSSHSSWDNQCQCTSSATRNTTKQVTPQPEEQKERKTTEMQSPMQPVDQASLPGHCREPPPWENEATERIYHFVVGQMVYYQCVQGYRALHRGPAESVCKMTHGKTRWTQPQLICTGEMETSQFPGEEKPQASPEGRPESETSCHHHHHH
Put plainly: SPR Biacore 8K; variant captured via anti-human Fc, IL-2Rα ECD-His injected; steady state. On the procedure:
(§2) IL-2 variants binding affinity to IL-2 receptor were detected by SPR using Biacore 8K. For IL-2Rα binding assay, each variant was captured on anti-human Fc immobilized CM5 sensor chip (cytiva). W3XX115-hPro1.ECD.His at different concentrations were injected over the sensor chip at a flow rate of 30 uL/min for an association phase of 60 s, followed by 90 s dissociation. The chip was then regenerated by 10 mM Glycine-HCl pH1.5 after each binding cycle. For IL-2Rγ binding assay, IL-2 variants were mixed with W369-hPro2.ECD.His as 1:1 before assay, were detected by SPR using Biacore 8K. W3XX115-hPro1.ECD.His was captured on anti-His immobilized CM5 sensor chip (cytiva). The mixture were injected over the sensor chip as described above. The sensorgrams of blank surface and buffer channel were subtracted from the test sensorgrams. The experimental data was fitted by steady state affinity model. Molecular weight of W3XX115-hPro1.ECD.His or W369-hPro1.ECD.His was used to calculate the molar concentration of analyte.
(§3) For T3U0.E44-1 and T2U0.E44-33, no binding to IL-2Rα was detected.
On the technique in general: SPR reads the build-up and loss of mass on a sensor chip optically.

In test [3] the target is T3, Human IL-2Rβ/γ (intermediate affinity IL-2 receptor) (human, UniProt P14784 27-551; P31785 23-369).
T3 sequence (looked up) 1: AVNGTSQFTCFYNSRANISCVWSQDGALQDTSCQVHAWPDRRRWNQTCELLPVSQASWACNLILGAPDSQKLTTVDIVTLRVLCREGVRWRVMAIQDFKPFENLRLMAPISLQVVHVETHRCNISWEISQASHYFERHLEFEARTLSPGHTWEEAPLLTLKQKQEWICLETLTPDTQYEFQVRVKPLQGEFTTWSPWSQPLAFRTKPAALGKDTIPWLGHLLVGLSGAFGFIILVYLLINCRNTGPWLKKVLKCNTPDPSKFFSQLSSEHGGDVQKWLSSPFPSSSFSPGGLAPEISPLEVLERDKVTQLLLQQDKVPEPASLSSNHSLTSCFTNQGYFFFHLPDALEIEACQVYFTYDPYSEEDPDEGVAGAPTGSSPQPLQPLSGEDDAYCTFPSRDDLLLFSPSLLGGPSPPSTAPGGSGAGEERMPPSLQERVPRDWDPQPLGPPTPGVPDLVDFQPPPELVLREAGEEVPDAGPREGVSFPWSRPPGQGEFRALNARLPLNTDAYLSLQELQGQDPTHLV
T3 sequence (looked up) 2: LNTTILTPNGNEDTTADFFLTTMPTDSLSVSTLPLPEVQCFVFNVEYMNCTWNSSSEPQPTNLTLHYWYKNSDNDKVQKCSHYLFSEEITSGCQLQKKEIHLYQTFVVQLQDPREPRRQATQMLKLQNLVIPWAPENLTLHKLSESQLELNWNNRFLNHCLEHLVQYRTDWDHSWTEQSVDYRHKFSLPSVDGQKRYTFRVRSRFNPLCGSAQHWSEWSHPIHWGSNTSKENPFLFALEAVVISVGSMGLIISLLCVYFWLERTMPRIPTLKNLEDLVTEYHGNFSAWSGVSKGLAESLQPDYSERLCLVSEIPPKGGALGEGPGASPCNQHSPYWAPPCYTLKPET
Put plainly: cell-based or functional assay.

For test [4], the target named is T1, Human IL-2Rα/β/γ complex (high affinity …). Kind of test: cell-based or functional assay.
In test [5] the target is T3, Human IL-2Rβ/γ (intermediate affinity …). Kind of test: FACS, HH cells; EC50 fold vs T2U0.E44-1. Put shortly: as §1
A general note: In flow cytometry, cells or beads pass a laser one at a time.

The target of test [6] is T2, W3XX115-hPro1.ECD.His, IL2Rα ECD. Kind of test: SPR Biacore 8K. As for the experimental part: as §2, §3
For test [7], the target named is T1, Human IL-2Rα/β/γ complex (high affinity …). Kind of test: FACS, MJ20 cells; EC50 fold vs T2U0.E44-1. As for the experimental part:
Human cutaneous T cell lymphoma HH cells, malignant non-Hodgkin's lymphoma NK92 cells and cutaneous T cell lymphoma MJ20 cells were used for binding assay. They both constitutively express IL-2Rβ (CD122) and […] (CD132), and NK92 and MJ20 also expresses IL-2Rα (CD25). HH, NK92 and MJ20 cells were cultured following ATCC guidance, then transferred to a 96-plate for binding analysis. Cells were incubated with IL-2/Fc fusion proteins at the indicated concentrations for 30 min at 4° C. to avoid internalization. Binding was detected by 2nd antibody of PE-anti-human Fc at 4° C. for another 30 min. The median fluorescence intensity (MFI) on HH and NK92 cells was measured using FACS.
Mutations of F42 or R38 were involved in T2U0.E44-26 to generate IL-2 variants.

Test [8] deals with T4, W369-hPro2.ECD.His, IL2Rβ ECD (human, UniProt P14784 27-239).
T4 construct: Entry includes linker and C-terminal 6xHis tag; also called CD122
T4 sequence: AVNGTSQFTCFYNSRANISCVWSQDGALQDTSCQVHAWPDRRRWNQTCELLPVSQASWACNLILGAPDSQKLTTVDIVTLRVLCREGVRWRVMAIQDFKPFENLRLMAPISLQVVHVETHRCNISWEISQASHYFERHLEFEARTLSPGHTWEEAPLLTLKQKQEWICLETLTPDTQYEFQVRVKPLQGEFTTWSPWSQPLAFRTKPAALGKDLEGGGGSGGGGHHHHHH
Kind of test: SPR Biacore 8K; set-up for IL-2Rβ not described.

Test [9] addresses T3, Human IL-2Rβ/γ (intermediate affinity …). Kind of test: FACS, HH cells. Put shortly: as §1

Here are results for one molecule from US20250000946A1 (WUXI BIOLOGICS IRELAND, published 2025).

B1: W3XX115-T2U0.E44-33.uIgG4V322 (Fc fusion)
chain: APTSSSTKKTQLQLEHLLLDLQMILNGINNYKNPKLTWMLTFKFYMPKKATELKHLQCLEEELKPLEEVLNLAQSKNFHLRPRDLISNINVIVLELKGSETTFMCEYADETATIVEFLNRWITFCQSILESKYGPPCPPCPAPEAAGGPSVFLFPPKPKDTLMISRTPEVTCVVVDVSQEDPEVQFNWYVDGVEVHNAKTKPREEQFNSTYRVVSVLTVLHQDWLNGKEYKCKVSNKGLPSSIEKTISKAKGQPREPQVYTLPPCQEEMTKNQVSLWCLVKGFYPSDIAVEWESNGQPENNYKTTPPVLDSDGSFFLYSRLTVDKSRWQEGNVFSCSVMHEALHNHYTQKSLSLSLG
heavy: EIQLQQSGPELVKPGASVKVSCKASGYSFTDYNMYWVKQSHGESLEWIGYIDPYNGGTRYNQKFKGKATLTVDKSSSTAFMHLNSLTSEDSAVYYCARNGHWDGAWFAYWGQGTLVTVSAASTKGPSVFPLAPCSRSTSESTAALGCLVKDYFPEPVTVSWNSGALTSGVHTFPAVLQSSGLYSLSSVVTVPSSSLGTKTYTCNVDHKPSNTKVDKRVESKYGPPCPPCPAPEAAGGPSVFLFPPKPKDTLMISRTPEVTCVVVDVSQEDPEVQFNWYVDGVEVHNAKTKPREEQFNSTYRVVSVLTVLHQDWLNGKEYKCKVSNKGLPSSIEKTISKAKGQPREPQVCTLPPSQEEMTKNQVSLSCAVKGFYPSDIAVEWESNGQPENNYKTTPPVLDSDGSFFLVSRLTVDKSRWQEGNVFSCSVMHEALHNHYTQKSLSLSLG
light: DIQMNQSPSSLSASLGDTITITCHASQNINVWLSWYQQKPGNIPKLLIYKASNLHTGVPSRFSGSRSGTGFTLTISSLQPEDIATYYCHQGQSYPFTFGSGTKLEIKRTVAAPSVFIFPPSDEQLKSGTASVVCLLNNFYPREAKVQWKVDNALQSGNSQESVTEQDSKDSTYSLSSTLTLSKADYEKHKVYACEVTHQGLSSPVTKSFNRGEC
For the molecule B1, the values for the EC50 in test [1] and in [9] were 627 nM and 760 nM, respectively. The equilibrium dissociation constant (Kd) – broadly, the equilibrium constant for the complex coming apart – in test [2] was 1030 nM; in test [8] it was 5870 nM. For the same molecule, the “Human CD8+ T Potency EC50 (STAT5 phosphorylation)” value in test [3] stood at 149 nM. Further, in [3], the “Human CD8+ T Potency reduction” value worked out at 41 fold. The “Human Treg Potency EC50 (STAT5 phosphorylation)” value in test [4] was determined as 0.42 nM. The “Human Treg Potency reduction” value in [4] was 302 fold. Moreover, the values for the Affinity reduction in test [5] and in test [7] were 15 fold and 13.7 fold, respectively. The “fold affinity reduction compared to T2U0.E44-1” value in test [6] is about 10 fold.
